{"source": "paper PMC2835542", "target": "human epidermal growth factor receptor (EGFR), stably over-expressed on rat 9L gliosarcoma cells (human) (UniProt P00533)", "test": "X-gal staining of live cells incubated with β-gal-labelled ligand complex"}
{"substance": "EGF ligand-complex with full-length β-gal reporter (EGF-B-SA-B-β-gal)", "values": [{"measurement": "percent of cells labelled", "result": "> 75", "unit": "%"}]}
